Experimental data from patent US20240158515A1, “ANTI-FGFR3 ANTIBODIES AND ANTIGEN-BINDING FRAGMENTS AND METHODS OF USE THEREOF” (Regeneron Pharmaceuticals, Inc., priority 2022, published 2024).

Legend:
[1] = target: T1, human FGFR3b (hFGFR3b.mmH, REGN3152) (Homo sapiens, UniProt P22607); experiment: Biacore SPR binding kinetics, monomeric human FGFR3b to captured antibodies; conditions: 25° C.
T1 construct: REGN3152 (human FGFR3b expressed with a C-terminal myc-myc-hexahistidine tag)
Protocol: (§1) Biacore binding kinetics of anti-FGFR3 antibodies, in an antibody capture format, to monomeric human FGFR3b, cynomolgus FGFR3b, murine FGFR3b, human FGFR3c, and dimeric human FGFR3b ecto domain recombinant proteins at 25° C. were analyzed.
(§2) Equilibrium dissociation constants (KD values) for human FGFR3b expressed with a C-terminal myc-myc-hexahistidine tag (hFGFR3b.mmH, REGN3152) or cynomolgus FGFR3b expressed with a C-terminal myc-myc-hexahistidine tag (mfFGFR3b.mmH, REGN3521), or murine FGFR3b expressed with a C-terminal myc-myc-hexahistidine tag (mFGFR3b.mmH, REGN3215) or human FGFR3c expressed with a C-terminal myc-myc-hexahistidine tag (hFGFR3c.mmH, REGN3155) or human FGFR3b expressed with an C-terminal murine Fc tag (hFGFR3b.mFc, REGN3153) binding to purified anti-FGFR3 antibodies were determined using a real-time surface plasmon resonance biosensor technology using a Biacore 3000 or Biacore 4000 instrument. […] Antibody-reagent association was monitored for 5 minutes while dissociation in HBS-EP running buffer was monitored for 10 minutes. […]
(§3) The specific SPR-Biacore sensorgrams were obtained by a double referencing procedure. […] Kinetic association (ka) and dissociation (kd) rate constants were determined by fitting the real-time sensorgrams to a 1:1 binding model using Scrubber v2.0c curve fitting software. […]

[2] = target: T2, hFGFR3c-hFc binding to hFGF acidic protein (Homo sapiens, UniProt P22607); experiment: ELISA blocking of hFGFR3c-hFc binding to hFGF acidic
T2 construct: hFGFR3c extracellular domain (amino acids Glu23-Gly375); purchased R&D Systems 766-FR-050
T2 sequence (P22607 23-375): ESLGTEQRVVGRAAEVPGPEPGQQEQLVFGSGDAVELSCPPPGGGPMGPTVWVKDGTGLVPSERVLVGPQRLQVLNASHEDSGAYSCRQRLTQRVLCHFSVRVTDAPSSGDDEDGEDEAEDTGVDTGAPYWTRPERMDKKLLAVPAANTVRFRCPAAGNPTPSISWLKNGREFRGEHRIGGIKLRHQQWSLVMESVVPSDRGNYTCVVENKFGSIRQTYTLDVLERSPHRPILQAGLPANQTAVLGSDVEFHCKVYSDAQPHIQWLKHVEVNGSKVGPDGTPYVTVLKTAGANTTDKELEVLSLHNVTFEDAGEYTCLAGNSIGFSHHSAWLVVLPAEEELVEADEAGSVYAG
Description: (§4) An ELISA-based blocking assay was developed to determine the ability of anti-FGFR3 antibodies to block the binding of human fibroblast growth factor receptor 3 isoform b (hFGFR3b) or human fibroblast growth factor receptor 3 isoform c (hFGFR3c) to human fibroblast growth factor acidic (hFGF acidic) or basic (hFGF basic) ligands.
(§5) The human FGFR3b recombinant protein used in the experiments had the hFGFR3b extracellular domain (amino acids E23-G377) expressed with the Fc portion of the mouse IgG2a at the C-terminus (amino acids E98-K330) (hFGFR3b-mFc, accession #NM_001163213.1). The hFGFR3c and hFGF acidic proteins were purchased commercially. […]
(§6) In the blocking assay, a 96-well microtiter plate was coated with either hFGF acidic or hFGF basic proteins at […] in PBS+10 mg/ml heparin overnight at 4° C. […] After a 1 hour incubation at room temperature, plates were washed, and plate-bound hFGFR3b-mFc or hFGFR3c-hFc proteins were detected with horseradish peroxidase (HRP) conjugated goat anti-mouse or goat anti-human Fcγ fragment specific antibodies. The plates were then developed using TMB substrate solution (BD Biosciences) according to the manufacturer's recommended procedure and absorbance at 450 nm was measured on a Victor X5 plate reader.
(§7) Binding data were analyzed using a sigmoidal (four-parameter logistic) dose-response model using GraphPad Prism software. […]

[3] = target: T3, human FGFR3c (hFGFR3c.mmH, REGN3155) (Homo sapiens, UniProt P22607); experiment: Biacore SPR binding kinetics, monomeric human FGFR3c to captured antibodies; conditions: 25° C.
T3 construct: REGN3155 (human FGFR3c expressed with a C-terminal myc-myc-hexahistidine tag)
T3 sequence (P22607 with tags, fused parts or gaps): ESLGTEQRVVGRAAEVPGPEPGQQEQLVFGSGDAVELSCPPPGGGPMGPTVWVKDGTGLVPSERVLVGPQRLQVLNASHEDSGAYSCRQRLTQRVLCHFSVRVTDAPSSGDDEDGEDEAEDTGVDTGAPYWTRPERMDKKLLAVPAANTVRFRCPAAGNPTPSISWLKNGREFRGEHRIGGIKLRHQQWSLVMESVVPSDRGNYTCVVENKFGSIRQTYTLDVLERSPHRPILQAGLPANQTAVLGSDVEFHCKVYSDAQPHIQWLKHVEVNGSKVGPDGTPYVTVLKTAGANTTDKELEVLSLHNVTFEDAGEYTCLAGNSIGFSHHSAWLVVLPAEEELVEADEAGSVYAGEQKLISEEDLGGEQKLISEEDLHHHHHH
Protocol: as §1, §2, §3

[4] = target: T4, hFGFR3c-hFc binding to hFGF basic protein (Homo sapiens, UniProt P22607); experiment: ELISA blocking of hFGFR3c-hFc binding to hFGF basic
T4 construct: hFGFR3c extracellular domain (amino acids Glu23-Gly375); purchased R&D Systems 766-FR-050
T4 sequence (P22607 23-375): T2 sequence (P22607 23-375)
Description: as §4, §5, §6, §7

[5] = system: CD73 protein level in Fadu S249C tumors; experiment: CD73 expression in Fadu S249C tumors in vivo, Western blot; design: species or system SCID mice; conditions: FGFR3 mAb 15 mg/kg one intraperitoneal dose; AZD4547 25 mg/kg daily gavage; FIG. 11A-11B
Protocol: To test the effect of anti-FGFR3 inhibitory antibody or tyrosine kinase inhibitor (AZD4547) on CD73 expression in vivo, tumor cells (5×10^6 UMUC14, 3×10^6 Fadu EV or S249C, in 50% Matrigel) were implanted subcutaneously into the right flank of 6 to 8-week-old female SCID mice (Jackson Laboratory). Once tumors were established (˜200 mm^3 in volume), mice were randomized into treatment groups (n=5-6 mice per group) and injected intraperitoneally once with anti-FGFR3 antibodies (15 mg/kg) or isotype control. Tyrosine kinase inhibitor AZD4547 (25 mg/kg) was administered once daily by oral gavage for 3 days. Tumors were collected 4 days post treatment initiation. Tumors were collected, snap frozen and lysed in RIPA buffer. Equal amount of tumor lysates were analyzed by SDS-PAGE and blotted with anti-CD73 and anti-FGFR3 antibodies as described above. Membranes were developed with SuperSignal West Pico or Femto substrate and luminescence images were captured with a C300 imager (Azure Biosystems). Intensity of each CD73 and actin band was quantitated using Image J (NIH), and the ratio of CD73/actin for each sample were graphed using Prism Graphpad.

[6] = system: BaF3 cells expressing FGFR3 S249C; experiment: BaF3 proliferation assay, FGFR3 S249C (TKI resistance study); format: cell-based, murine; conditions: 72 h, CellTiter-Glo, FIG. 12A left; read-out: IC50, growth of BaF3 cells expressing FGFR3 S249C
Protocol: (§8) IL-3 dependent murine pro B cell line BaF3 cells were engineered to stably express full length human FGFR3b S249C, V557L, V557M, S249C/V557L, S249C/V557M (accession number for WT FGFR3b NP_001156685.1, amino acids M1-T808). Cells were maintained in RPMI 1640+10% FBS+P/S/G+1 ng/ml mouse IL-3+500 ug/ml Neomycin; 37° C. 5% CO2. For proliferation assays, cells were washed with IL-3-free culture media and plated at 10^5 cells/well into 96-well black wall tissue culture plates. Cells were treated with 1:3 serially diluted antibody as indicated in the presence or absence of 5 μg/ml heparin and 1 nM human FGF1. After addition of antibodies, cells were incubated at 37° C./5% CO2 for 72 h followed by the addition of an equal volume of CellTiter-Glo™ (Promega) reagent to lyse cells and detect luciferase activity. Luminescence signal was quantitated with Envision plate reader (PerkinElmer). EC50 values of the antibodies were determined using GraphPad Prism software.

[7] = system: BaF3 cells expressing FGFR3 S249C/V557L; experiment: BaF3 proliferation assay, FGFR3 S249C/V557L; format: cell-based, murine; conditions: FIG. 12A right
Protocol: as §8

[8] = system: BaF3 cells expressing FGFR3 S249C/V557M; experiment: BaF3 proliferation assay, FGFR3 S249C/V557M; format: cell-based, murine; conditions: FIG. 12B
Protocol: as §8

[9] = system: CD73 protein level in UMUC14 cells; experiment: CD73 expression in UMUC14 cells in vitro, Western blot; format: cell-based; conditions: 1 nM, 10 nM, 100 nM, 48 hrs, FIG. 6
Protocol: To investigate the effect of anti-FGFR3 antibody or tyrosine kinase inhibitor (AZD4547; commercially available) on CD73 expression, UMUC14 bladder cancer cells were seeded in 6 well tissue culture plate (Corning) in complete medium (MEM medium with 10% FBS, 1% Non-Essential Amino Acids, Pen/Strep) and cultured overnight at 37° C. 5% CO2. Cells were then treated with antibodies or inhibitors at indicated concentration (100 nM, 10 nM or 1 nM) for 48 hrs. Cells were washed with pre-chilled PBS and collected in lysis buffer containing protease and phosphatase inhibitors. Equal amount of cell lysates were analyzed by SDS-PAGE. Blots were blocked in 0.5% Tween 20 in Tris buffered saline (TBS) containing 5% non-fat dry milk followed by overnight incubation with anti-CD73 primary antibody (Cell Signaling Technology). After washing 3× with TBST and incubation with secondary antibody, membranes were developed with SuperSignal West Pico or Femto substrate and luminescence images were captured with a C300 imager (Azure Biosystems).

T1 sequence (P22607 with tags, fused parts or gaps isoform P22607-2): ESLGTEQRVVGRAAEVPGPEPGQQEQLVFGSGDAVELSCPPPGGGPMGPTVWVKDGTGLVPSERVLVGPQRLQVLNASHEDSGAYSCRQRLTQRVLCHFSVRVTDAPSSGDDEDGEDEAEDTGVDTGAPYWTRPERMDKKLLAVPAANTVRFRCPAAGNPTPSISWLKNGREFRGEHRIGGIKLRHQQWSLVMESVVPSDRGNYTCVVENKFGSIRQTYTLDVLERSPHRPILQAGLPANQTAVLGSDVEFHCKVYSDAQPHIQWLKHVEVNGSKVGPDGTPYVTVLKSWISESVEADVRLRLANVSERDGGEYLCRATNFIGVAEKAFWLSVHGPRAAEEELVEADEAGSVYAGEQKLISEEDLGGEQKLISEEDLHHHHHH

| ka [1] | kd [1] | Antibody blocking 0.4 nM hFGFR3c-hFc binding to hFGF acidic protein, % Blocking at 200 nM mAb [2] | ka [3] | kd [3] | Antibody blocking 7 nM hFGFR3c-hFc binding to hFGF basic protein, % Blocking at 200 nM mAb [4] | Substance | CD73 expression in Fadu S249C tumors in vivo (in words) [5] | IC50 [6] | growth inhibition of BaF3 cells expressing FGFR3 S249C+V557L (in words) [7] | growth inhibition of BaF3 cells expressing FGFR3 S249C+V557M (in words) [8] | CD73 expression in UMUC14 cells in vitro (in words) [9] |
| --- | --- | --- | --- | --- | --- | --- | --- | --- | --- | --- | --- |
| 883000 M⁻¹ s⁻¹ | 0.000616 s⁻¹ | 86% | 544000 M⁻¹ s⁻¹ | 0.00132 s⁻¹ | 87% | REGN6331: comparator; relates to FGFR3b mAb, hIgG1 (mAb 184.6.1 N54S, Genentech); HC SEQ ID NO: 244, LC SEQ ID NO: 243 [reference compound] |  |  |  |  |  |
|  |  |  |  |  |  | AZD4547 [reference compound] | decreased expression of CD73 relative to mice treated with control | 9.9 nM | ineffective | ineffective | dose dependent downregulation of CD73 expression |
